As a reminder, the Kd is the equilibrium constant for the complex coming apart. Broadly, the stoichiometry N is the number of molecules, sites or subunits per partner or assembly.

The target in the test is MBP-RU678 (human). Kind of test: ITC; MicroCal ITC200, 25 °C, HBS (10 mM HEPES, 150 mM NaCl, pH 7.4); cell: 50 μM MBP-RU678; syringe: 0.5 mM Srr1-BR or Srr2-BR; single binding mode.

The substance “Srr2-BR (untagged recombinant binding region of Srr2) (domain or fragment)” yielded a Kd of 12 µM and a stoichiometry N of 1.
In the same order, the values of “Srr1-BR (untagged recombinant binding region of Srr1) (domain or fragment)” are 69 µM and 1.
